Legend:
[1] = biological target: SMALP-Sf-ABCC2-FLAG (Sf-ABCC2 extracted from silkworm pupae membranes with styrene maleic acid and affinity purified) (Spodoptera frugiperda); assay: immuno-magnetic separation with SMALP-Sf-ABCC2 and anti-FLAG magnetic beads; colonies on LB-tet
[2] = biological target: T1, Spore-Cry1Fa (Bacillus subtilis spores displaying the Bacillus thuringiensis Cry1Fa protein as a … (Bacillus thuringiensis, UniProt Q03746 1-615)); assay: microscopy of spores on Sf9 cells expressing Sf-ABCC2
T1 construct: vector pSB634 or pHY300PLK
T1 sequence: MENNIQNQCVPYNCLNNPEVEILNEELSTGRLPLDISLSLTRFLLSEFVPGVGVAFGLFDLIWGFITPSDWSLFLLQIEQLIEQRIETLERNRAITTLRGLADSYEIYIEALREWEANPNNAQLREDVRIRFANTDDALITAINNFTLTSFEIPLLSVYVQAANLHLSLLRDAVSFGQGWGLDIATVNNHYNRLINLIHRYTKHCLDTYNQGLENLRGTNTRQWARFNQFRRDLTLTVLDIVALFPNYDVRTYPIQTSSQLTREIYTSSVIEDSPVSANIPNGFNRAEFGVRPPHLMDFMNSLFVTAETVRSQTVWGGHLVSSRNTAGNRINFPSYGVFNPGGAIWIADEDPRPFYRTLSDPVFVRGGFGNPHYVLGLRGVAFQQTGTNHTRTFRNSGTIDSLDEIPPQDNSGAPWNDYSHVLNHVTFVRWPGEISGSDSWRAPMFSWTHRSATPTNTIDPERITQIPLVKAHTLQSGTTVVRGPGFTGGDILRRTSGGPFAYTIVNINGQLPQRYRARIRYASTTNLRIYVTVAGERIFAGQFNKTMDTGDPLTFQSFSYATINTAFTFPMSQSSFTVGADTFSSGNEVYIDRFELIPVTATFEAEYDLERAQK

[3] = biological target: T1, Spore-Cry1Fa (Bacillus subtilis spores …); assay: immuno-magnetic separation with anti-FLAG magnetic beads
[4] = biological target: T2, Spore-Cry1Aa (Bacillus subtilis spores displaying the Bacillus thuringiensis Cry1Aa protein as a … (Bacillus thuringiensis, UniProt P0A366 1-621)); assay: flow cytometry of spores labelled with Bm-ABCC2, anti-FLAG mouse antibody and Alexa-labelled anti-mouse IgG, after a wash with 0.2% SDS
T2 construct: vector pSB634 or pHY300PLK

[5] = biological target: T1, Spore-Cry1Fa (Bacillus subtilis spores …); assay: bright field and fluorescence microscopy of spores mixed with Sf9 cells

Spore-pSB634 (Bacillus subtilis spores carrying the empty vector pSB634, no Cry protein displayed)
spores (colonies) pulled out by the magnetic beads from 10^6 spores (spores (colonies)) [1]: 9

B1: Sf-ABCC2 (Spodoptera frugiperda ABC transporter subfamily C type 2, C-terminal FLAG tag) expressed on Sf9 cells (receptor)
chain: MDKSNKNTAANGNGGQRAGEPKKRVRKKPNILSRIFVWWIFPVLITGNKRDVEEDDLIVPSKKFNSERQGEYFERYWFEEVAIAEREDRDPSLWKAMRRAYWLQYMPGAIFVLLISGLRTAQPLLFSQLLSYWSVDSEMSQQDAGLYALAMLGINFITMMCTHHNNLFVMRFSMKVKIAASSLLFRKLLRMSQVSVGDVAGGKLVNLLSNDVARFDYAFMFLHYLWVVPLQVGVVLYFVYDAAGWAPYVGLFGVIILIMPLQAGLTKLTGVVRRMTAKRTDKRIKLMSEIINGIQVIKMYAWEKPFQLVVKAARAYEMSALRKSIFIRSMFLGFMLFTERSVMFLTVLTLALTGNMISATLIYPIQQYFGIITMNVTLILPMAFASFSEMLISLERIQGFLLLDERSDIQITPKVVNGAGSKLFNNSKKEGGLETGIVLPTKYSPTEASIARPVQDEPNMADYPVQLNKVNATWADLNDNKEMTLKNISLRVRKNKLCAVIGPVGSGKTSLLQLLLRELPVTSGNLSISGTVSYASQEPWLFPATVRENILFGLEYNVAKYKEVCKVCSLLPDFKQFPYGDLSLVGERGVSLSGGQRARINLARAVYREADIYLLDDPLSAVDANVGRQLFDGCIKGYLSGKTCILVTHQIHYLKAADFIVVLNEGSVENMGSYDELMKTGTEFSMLLSDQASEGSDTDKKERPAMMQGISKMSVKSDDEEGEEKVQVLEAEERQSGSLKWDVLGRYMKSVNSWCMVVMAFLVLVITQGAATTTDYWLSFWTNQVDGYIQTLPEGESPNPELDTQVGLLTTGQYLIVHGSVVLAIIILTQVRILSFVVMTMRASENLHNTIYEKLIVAVMRFFDTNPSGRVLNRFSKDMGAMDELLPRSMLETVQMYLSLASVLVLNAIALPWTLIPTTVLMFIFVFLLKWYINAAQAVKRLEGTTKSPVFGMINSTISGLSTIRSSNSQDRLLNSFDDAQNLHTSAFYTFLGGSTAFGLYLDTLCLIYLGIIMSIFILGDFGELIPVGSVGLAVSQSMVLTMMLQMAAKFTADFLGQMTAVERVLEYTKLPTEENMETGPTTPPKGWPSAGEVTFSNVYLKYSPDDPPVLKDLNFAIKSGWKVGVVGRTGAGKSSLISALFRLSDITGSIKIDGLDTQGIAKKLLRSKISIIPQEPVLFSASLRYNLDPFDNYNDEDIWRALEQVELKESIPALDYKVSEGGTNFSMGQRQLVCLARAILRSNKILIMDEATANVDPQTDALIQKTIRKQFANCTVLTIAHRLNTIMDSDRVLVMDQGVAAEFDHPYILLSNPNSKFSSMVKETGDNMSRILFEVAKTKYESDSKTADYKDDDDK
notes: Expressed in Sf9 cells by baculovirus together with EGFP; also called Sf9::Sf-ABCC2; Sf9 expressing Sf-ABCC2
binding result [2]: binds

B2: SMALP-Sf-ABCC2-FLAG (Sf-ABCC2 extracted from silkworm pupae membranes with styrene maleic acid and affinity purified) (receptor)
chain: B1 chain
notes: also called Sf-ABCC2 in SMALP
binding result [3]: binds

B3: Bm-ABCC2 solubilized in 1% Triton X100 and affinity purified (C-terminal FLAG tag) (receptor)
chain: MNSDGRAGENSSAETRRKPHKPNILSRIFLWWMCPVLVKGNQRDTVEDDLIIPKKSFNSENQGEYLERYWLQEYEAAIKEKREPSLWTALRKAYWLGYMPGAIYLIIISVFRIIQPLVFAELLSYWSVEATITRLEASYYALALLGINFINMMCQHHNSLFVARFGLKVKVACSSLVYRKLLRMDQVALGDVSGGKLVNLLSNDVARFDYAFMFLHYLWVVPVQAAVVLYFLYISAGYAPFVGFFGVVILILPIQAGLTKLTSVVRRETAQRTDRRIKLMTEIINGIQVIKMYAWEKPFQAIVKVARNFEMIALRKSIFIRSVFLGFMLFTERSIIFITCLTFLLTGNLVTATLIYPIQQYISIIQINLTMILPLAIASLSEMLVSLERIQNFLVKDEREDVQITPKSYGDDNRLIFNNKASLGPQNEIIPKKYLATDGQLASTLTNEPVLSTDPAVCDYPIELSKVDATWSSSTDTSEMTLRNITLRIGRGKLCAIIGPVGSGKSSILQVLLKELPVCGGSLRINGRLSYACQESWLFPATVRENILFGLPYDSQKYHEVCKACSLLPDFKQFPYGDLSLVGERGVSLSGGQRARINLARAVYREADIYLLDDPLSAVDANVGRQLFDGCIKGYLRGRTCVLVTHQIHYLKAADIIVILNEGAIENVGSYDDLVNTGTEFSKLLTNQESNDNENGPEKNFLRAISKISTKSVEDPDNEKVQVEEEEKRAKGNLKFSVLYKYLSAVKSWFLVFLMVVTLVITQGCATFIDYWLSFWTNQVDEYEQSLAEGEEPSTSLDTQAGAFTLGVYLWTYGGVILILIVISHVRILTFVITTMRASSNFHDTVYKKLIITVMRFFDMNPSGRVLNRFSKDMGAMDEFLPRSLFETVQMYLTLCSILILNAIALPWTLIPTAVLLILFFVLLKWYLNAAQAVKRLEGTTKSPVLGMINSTLTGLSTIRSSNSQGRLLQMFDNAQNLHTSAFYTFVGGSTAFGLYLDALCLVYLGVILTIFLVIDFSTLIPVGSVGLAVSQSMVLTMMLQMAARFTADFLGQMTAVERVLEYTELPMEENMYDGSQLPKDWPTHGRIEFQNLFLNYSQEDPPVLKDLNFVIENGWKVGVVGRTGAGKSSMISALFRLYELQGHIRIDGIDTNIIAKTELRSKISIIPQEPILFSASVRYNLDPFDSYSDDEIWRALEQVELKEVIPALDYKVSEGGSNFSVGQRQLVCLARAVLRSNKILVMDEATANVDPQTDALIQTTIRREFASCTVITIAHRLNTIMDSDRVLVMDKGVVAEYDTPYALLSDPNSIFSSMVRETGDTMSKVLFRVAEDKHLGRNTEKDYKDDDDK
binding result [4]: binds

B4: Sf-ABCC2-Mutant (ABCC2 from a Cry1Fa-resistant Spodoptera frugiperda strain, C-terminal FLAG tag) expressed on Sf9 cells (receptor)
chain: MDKSNKNTAANGNGGQRAGEPKERVRKKPNILSRIFVWWIFPVLITGNKRDVEEDDLIVPSKKFNSERQGEYFERYWFEEVAIAEREDRDPSLWKAMRRAYWLQYMPGAIFVLLISGLRTAQPLLFSQLLSYWSVDSEMSQQDAGLYALAMLGINFITMMCTHHNNLFVMRFSMKVKIAASSLLFRKLLRMSQVSVGDVAGGKLVNLLSNDVARFDYAFMFLHYLWVVPLQVGVVLYFVYDAAGWAPYVGLFGVIILIMPLQAGLTKLTGVVRRMTAKRTDKRIKLMSEIINGIQVIKMYAWEKPFQLVVKAARAYEMSALRKSIFIRSMFLGFMLFTERSVMFLTVLTLALTGNMISATLIYPIQQYFGIITMNVTLILPMAFASFSEMLISLERIQGFLLLDERSDIQITPKVVNGAGSKLFNNSKKEGGLETGIVLPTKYSPTEANMARPMQDEPNMADYPVQLNKVNATWADLNDNKEMTLKNISSRVRKNKLCAVIGPVGSGKTSLLQLLLRELPVTSGNLSISGTVSYASQEPWLFPATVRENILFGLEYNVAKYKEVCKVCSLLPDFKQFPYGDLSLVGERGVSLSGGQRARINLARAVYREADIYLLDDPLSAVDANVGRQLFDGCIKGYLSGKTCILVTHQIHYLKAADFIVVLNEGSVENMGSYDELMKTGTEFSMLLSDQASEGSDTDKKERPAMMRGISKMSVKSDDEEGEEKVQVLEAEERQSGSLKWDVLGRYMKSVNSWCMVVMAFLVLVITQGAATTTDYWLSFWTNQVDIQTLPEGESKNPELNTQVGLLTTGQYLIVHGSVVLAIIILTQVRILSFVVMTMRASENLHNTIYEKLIVAVMRFFDTNPSGRVLNRFSKDMGAMDELLPRSMLETVQMYLSLASVLVLNAIALPWTLIPTTVLMFIFVFLLKWYINAAQAVKRLEGTTKSPVFGMINSTISGLSTIRSSNSQDRLLNSFDDAQNLHTSAFYTFLGGSTAFGLYLDTLCLIYLGIIMSIFILGDFGELIPVGSVGLAVSQSMVLTMMLQMAAKFTADFLGQMTAVERVLEYTKLPTEENMETGPTTPPKDWPSAGEVTFSNVYLKYSPDDPPVLKDLNFAIKSGWKVGVVGRTGAGKSSLISALFRLSDITGSIKIDGLDTQGIAKKLLRSKISIIPQEPVLFSASLRYNLDPFDNYNDEDIWRALEQVELKESIPALDYKVSEGGTNFSMGQRQLVCLARAILRSNKILIMDEATANVDPQTDALIQKTIRKQFATCTVLTIAHRLNTIMDSDRVLVMDQGVAAEFDHPYILLSNPNSKFSSMVKETGDNMSRILFEVAKTKYESDSKTADYKDDDDK
notes: Expressed in Sf9 cells by baculovirus
binding result [5]: no binding
